Earlier results on one substance are cited in article PMC3823252.

The series addresses KpOmpA (Klebsiella pneumoniae) (UniProt P24017).

Sequence of KpOmpA (Klebsiella pneumoniae) (P24017 2-344): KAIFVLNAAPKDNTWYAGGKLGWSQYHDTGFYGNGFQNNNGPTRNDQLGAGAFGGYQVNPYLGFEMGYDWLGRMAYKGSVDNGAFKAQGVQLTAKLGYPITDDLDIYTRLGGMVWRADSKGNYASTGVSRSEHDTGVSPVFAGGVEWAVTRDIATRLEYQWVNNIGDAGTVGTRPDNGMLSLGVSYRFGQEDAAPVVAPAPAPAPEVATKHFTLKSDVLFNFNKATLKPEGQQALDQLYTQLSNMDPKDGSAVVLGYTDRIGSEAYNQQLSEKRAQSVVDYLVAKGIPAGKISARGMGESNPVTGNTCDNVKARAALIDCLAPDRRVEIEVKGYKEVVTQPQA
Sequence of PTX3 (P26022 18-381): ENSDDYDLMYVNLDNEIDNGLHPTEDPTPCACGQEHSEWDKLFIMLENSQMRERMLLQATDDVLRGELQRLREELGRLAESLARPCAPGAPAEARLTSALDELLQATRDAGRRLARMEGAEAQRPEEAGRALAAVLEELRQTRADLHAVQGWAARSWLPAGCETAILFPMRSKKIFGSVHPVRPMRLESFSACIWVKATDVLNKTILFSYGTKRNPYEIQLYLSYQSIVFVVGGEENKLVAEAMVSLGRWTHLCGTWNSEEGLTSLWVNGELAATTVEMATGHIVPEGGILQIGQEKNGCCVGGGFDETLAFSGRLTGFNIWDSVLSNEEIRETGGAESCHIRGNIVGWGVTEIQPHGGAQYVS

In the case of PTX3 (from UniProt P26022), the Kd was 50 nM.

One may read the Kd as the concentration at which binding is half-saturated.
